From the supplement of paper PMC10567573

B1: TMEM106C (parent)
chain: FTGRDSITCLTCQGTGYIPTEQVN
B2: INTS3 (parent)
chain: YPPLEGHVRQGVFSSLNHIVEKRV

Variants of: B1
Assay: protein stability index of a GFP-peptide fusion (GPS, HEK-293T) (PSI 1-6); higher = more stable
Settings: c terminus: a fixed tail appended
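Note: lentivirally expressed fusions sorted by FACS into six bins by GFP to DsRed ratio, PSI derived from sequencing read proportions per bin multiplied by bin number.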

Protein stability index, by site and new letter:
V23: N 2.12; G 1.75; M 1.88; E 1.79; L 1.7; H 2.11; I 1.47; F 1.73; C 2.25; P 1.89; K 2.3; R 2.13; D 1.54; T 2.09; A 2.21; Y 1.79; Q 1.72; W 1.87; S 1.51
Q22: V 2.16; W 1.88; G 2.84; C 2; I 1.95; R 2.13; L 2.52; D 1.86; S 1.79; E 1.73; A 2.07; Y 1.9; P 1.73; H 1.47; T 2.2; F 1.85; N 2.26; K 1.85; M 2.42
C12: Y 2.06; R 1.85; S 2; L 1.79; A 2.17; I 2.4; E 2.18; Q 1.95; T 1.63; N 2.18; H 1.98; G 2.04; V 1.83; F 2.34; P 1.68; K 2; M 2.09; W 2.51; D 2.41
T11: N 1.86; V 2.66; M 1.77; F 2.85; D 2.42; H 2.06; Q 1.85; R 1.97; P 1.55; S 2.01; C 1.86; K 1.7; G 1.64; E 2.01; W 2.97; I 1.52; L 1.66; Y 2.07
N24: L 1.91; Y 2.11; A 1.89; R 2.37; F 1.92; T 2; W 3.36; S 2.27; D 2.21; G 2.29; P 1.76; E 2.47; M 1.84; I 1.44; H 2.07; V 2.24; Q 1.96; K 2.33; C 2.25
P19: F 2.43; T 2.21; D 1.76; N 1.96; Q 2.05; I 1.84; K 2; A 2.04; C 2.29; G 1.63; Y 1.78; S 2.23; H 2.35; M 2.15; V 2.67; W 2.29; R 1.26; E 2.02; L 2.29
E21: H 1.79; K 1.65; R 2.03; F 1.22; A 1.79; I 2.16; P 2.2; G 1.76; C 3.11; M 1.75; L 2.03; D 1.82; Q 1.94; T 2.08; W 1.84; N 2.39; V 2.59; S 1.94; Y 2.67
T20: N 1.8; G 1.45; F 1.89; P 1.74; C 1.83; V 2.23; D 2.56; S 2.07; R 2.27; Y 2.17; M 1.93; H 1.92; L 2.19; W 1.71; I 1.99; E 1.66; Q 2.65; A 2.11; K 1.92
Q13: V 2; S 1.92; H 2.09; P 1.94; W 2.52; N 2.39; Y 2.38; A 2.23; E 1.95; F 2.17; L 2.13; T 2.71; M 1.75; D 1.83; K 1.96; R 2.18; I 2.35; G 2.28; C 1.53
G14: A 1.5; R 2.24; I 2.53; N 1.74; W 1.69; T 2.33; K 1.66; H 1.88; L 2.8; P 1.29; V 2.35; Q 1.99; S 1.58; C 1.89; M 2.91; E 2.28; F 2.99; D 1.56
T15: C 2.26; H 2.09; K 2.12; P 2.1; V 2.04; L 1.89; D 1.81; R 2.26; Y 2.52; E 1.64; N 1.62; W 2.34; Q 1.53; I 2.16; A 2.12; F 2.26; G 1.43; M 2.59; S 1.56
Y17: N 1.93; L 1.84; E 2.2; W 3.54; C 2.13; K 1.94; Q 1.79; M 1.77; F 1.64; T 2.16; V 2.55; P 1.91; R 2.34; A 1.8; I 1.92; G 1.47; H 2.61; D 2.17; S 1.68
G16: V 1.85; A 1.92; T 2.04; Q 1.6; Y 2.08; P 3.09; H 2.01; D 1.56; I 2.94; F 2.71; C 1.83; M 2.8; R 2.21; E 1.7; L 2.13; S 2.05; K 1.56; N 1.49; W 2.98
I18: V 1.64; G 1.48; Y 1.68; E 1.53; C 1.91; S 2.09; D 1.96; A 1.93; H 2.4; Q 2; F 1.86; R 2.57; T 3.01; P 1.58; K 1.82; N 1.61; W 1.86; M 2.78; L 2.55

Variants of: B2
Assay: as above
Settings: c terminus: a fixed tail appended

Protein stability index of substitutions, site by site:
V24: C 2.01; G 3.08; F 1.99
H18: I 1.99
Y1: S 3.78; H 4.07
Q10: A 2.19; M 1.98; I 1.62
V20: S 2.29; M 2.7
K22: M 1.73; T 2.23
V12: S 2.11; E 3.46
V8: I 2.38; K 2.84
P3: D 3.11; F 2.29; K 3.04; H 2.9; V 2.65; C 2.78; T 2.4
F13: M 3.36; R 3.32
E21: A 2.23
G11: D 2.59; S 2.54
N17: P 2.4; Y 1.71; L 2.46; D 3.07; S 2.29
E5: I 1.73
S15: R 2.12
H7: Y 1.47; D 2.79
L4: M 2.45; H 3.01; N 2.19
P2: D 3.36; S 1.97; V 1.36; C 1.78; F 2.71; N 1.82
R9: N 2.75; K 2.94
L16: R 4.03; V 3.1; E 3.65; K 3.35; Q 3.01; T 2.77; M 2.39; S 2.49; P 2.93
G6: A 2.38
S14: D 3.52; T 2.56; E 2.73; F 1.79; V 2.29
R23: L 1.98; F 1.81; A 2.19; V 1.85; S 2.67; H 2.4
